Blank lines part the entries; values can stand above or below the molecule they belong to.
How the values were obtained:
[1] = biological target: isolated Rpn11/Rpn8 heterodimer with Rpn11 A89F (S. cerevisiae) (UniProt P43588)
[2] = biological target: isolated Rpn11/Rpn8 heterodimer with Rpn11 A89I (S. cerevisiae) (UniProt P43588)
[3] = biological target: Rpn11 L132R, deubiquitinase subunit of the lid in the reconstituted receptor-deficient 26S proteasome (S. cerevisiae) (UniProt P43588)
[4] = biological target: Rpn11, wild type, deubiquitinase subunit of the lid in the reconstituted 26S proteasome (S. cerevisiae) (UniProt P43588)
[5] = biological target: Rpn11, wild type, deubiquitinase subunit of the lid in the reconstituted 26S proteasome (S. cerevisiae) (UniProt P43588); remark: listed apart in the source
[6] = biological target: Rpn11 A89F, deubiquitinase subunit of the lid in the reconstituted receptor-deficient 26S proteasome (S. cerevisiae) (UniProt P43588)
[7] = biological target: Rpn11, wild type, deubiquitinase subunit of the lid in the reconstituted 26S proteasome (S. cerevisiae) (UniProt P43588); remark: listed apart in the source
[8] = biological target: Rpt5, ATPase subunit of the base, in the reconstituted 26S proteasome (S. cerevisiae) (UniProt P33297)

Molecule: mono-ubiquitinated GS substrate (titin I27^V15P with glycine-serine-rich initiation region, one ubiquitin K63R attached) (from UniProt P0CG63 1-76)
degradation rate of the mono-ubiquitinated GS substrate by the SspB-fused ARR-Pru-ΔUIM proteasome with Rpn11^L132R; no ubiquitin-mediated stimulation (bulk degradation assay) [3]: 0.25 min⁻¹
degradation rate of the mono-ubiquitinated GS substrate by the SspB-fused ARR-Pru-ΔUIM proteasome with wild-type Rpn11, against the non-ubiquitinated GS substrate (bulk degradation assay) [4]: 0.38 min⁻¹

Molecule: poly-ubiquitinated GS substrate (titin I27^V15P with glycine-serine-rich initiation region, long ubiquitin chains attached) (from UniProt P0CG63 1-76)
degradation rate of the GS substrate with long ubiquitin chains by SspB-fused ARR-Pru-ΔUIM proteasomes; 0.25 min^-1 for the non-ubiquitinated GS substrate (bulk degradation assay) [5]: 1 min⁻¹

Molecule: unanchored K48-linked tetraubiquitin chain (from UniProt P0CG63 1-76)
SspB-delivered substrate degradation by ARR-Pru-ΔUIM-A89F proteasomes without and with K48-Ub4 (bulk degradation assay) [6]: 1.2 fold
average tail-insertion time constant of the wild-type proteasome without and with unanchored K48-Ub4 (single-molecule FRET substrate-processing assay) [7]: 1.39 s

Second part, the molecule after the results:

deubiquitinase activity of the isolated Rpn11/Rpn8 heterodimer (0.5 μM) on 100 μM Ubiquitin-TAMRA, against wild-type Rpn11 (fluorescence polarisation, 30°C) [1]: 1.3 fold
deubiquitinase activity of the isolated Rpn11/Rpn8 heterodimer (0.5 μM) on 100 μM Ubiquitin-TAMRA, against wild-type Rpn11 (fluorescence polarisation, 30°C) [2]: 10 fold
Molecule: Ubiquitin-TAMRA

SspB-delivered substrate degradation by proteasomes with Rpn10^EKK against wild-type proteasomes (bulk degradation assay) [8]: 1.6 fold
s1-to-non-s1 transition rate of proteasomes with Rpn10^EKK against wild-type proteasomes (single-molecule FRET conformational dynamics assay) [8]: 40%
B1: Rpn10 with the R23E, D31K and E68K mutations in its VWA domain, as subunit of the reconstituted 26S proteasome (receptor)
chain: MVLEATVLVIDNSEYSRNGDFPETRFEAQIKSVEFIFQAKRNSNPENTVGLISGAGANPRVLSTFTAKFGKILAGLHDTQIEGKLHMATALQIAQLTLKHRQNKVQHQRIVAFVCSPISDSRDELIRLAKTLKKNNVAVDIINFGEIEQNTELLDEFIAAVNNPQEETSHLLTVTPGPRLLYENIASSPIILEEGSSGMGAFGGSGGDSDANGTFMDFGVDPSMDPELAMALRLSMEEEQQRQERLRQQQQQQDQPEQSEQPEQHQDK

Reference: paper PMC12256112
